In article PMC7076015 (2020):

Target: MBP-KPNA7(P339A) (human, UniProt A9QM74 1-516, P339A)

Kd: ~157 nM
Binder: RGGNVGGKRKADGYNQPDSKRRQTN (domain or fragment) [GST-GFP-hnRNP R bipartite NLS]
